According to patent US7067474B1, “Agents for treating human illnesses based on β-catenin, and the production and use thereof” (Max-Delbruck-Centrum fur Molekulare Medizin, priority 1998, dated 2006):

T1: APC (20 amino acid repeats) (Homo sapiens, UniProt P25054)
T1 construct: for the amino acids Ser1259Asp 1400 (APC 20 amino acid repeats); expressed in transfected cells; host or cells: yeast (two-hybrid, Matchmaker, Clontech)
T1 sequence (P25054 1253-1394 limits assumed): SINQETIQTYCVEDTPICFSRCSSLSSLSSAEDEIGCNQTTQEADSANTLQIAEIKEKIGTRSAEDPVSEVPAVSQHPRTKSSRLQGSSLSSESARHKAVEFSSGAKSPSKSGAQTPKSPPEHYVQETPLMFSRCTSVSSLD

T2: APC (15 amino acid repeats) (Homo sapiens, UniProt P25054)
T2 construct: of human APC for the amino acids His1012–Glu1215 (APC 15 amino acid repeats); expressed in transfected cells; host or cells: yeast (two-hybrid, Matchmaker, Clontech)
T2 sequence (P25054 1006-1209 limits assumed): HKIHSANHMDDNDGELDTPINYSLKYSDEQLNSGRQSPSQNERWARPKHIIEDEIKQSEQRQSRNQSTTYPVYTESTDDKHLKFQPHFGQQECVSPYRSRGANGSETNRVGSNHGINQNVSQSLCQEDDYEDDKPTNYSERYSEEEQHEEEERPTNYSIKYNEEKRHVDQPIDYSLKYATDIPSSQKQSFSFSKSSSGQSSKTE


Assays:
[1] = target: conductin amino acids Ala342-Arg465 fused to Lex-A (vector BTM 116) (UniProt P0A7C2); assay: yeast 2-hybrid, β-galactosidase reporter; percent of wild type β-catenin
Chain of conductin amino acids Ala342-Arg465 fused to Lex-A (vector BTM 116) (P0A7C2 other isoform, or with tags, fused parts or gaps limits assumed, form in doubt): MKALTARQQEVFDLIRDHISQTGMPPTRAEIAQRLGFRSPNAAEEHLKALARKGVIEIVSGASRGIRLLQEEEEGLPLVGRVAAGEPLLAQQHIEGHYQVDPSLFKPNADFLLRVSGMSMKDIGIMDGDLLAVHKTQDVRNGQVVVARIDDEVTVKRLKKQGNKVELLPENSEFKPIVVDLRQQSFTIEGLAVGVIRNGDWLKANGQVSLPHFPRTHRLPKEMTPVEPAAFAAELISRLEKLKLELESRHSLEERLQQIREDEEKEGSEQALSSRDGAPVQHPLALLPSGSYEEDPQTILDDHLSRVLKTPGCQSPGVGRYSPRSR

[2] = target: human APC amino acids His1012-Glu1215 (APC 15 amino acid repeats) fused to Lex-A (vector BTM 116) (human); assay: as above
Chain of human APC amino acids His1012-Glu1215 (APC 15 amino acid repeats) fused to Lex-A (vector BTM 116) (human) (P0A7C2 other isoform, or with tags, fused parts or gaps limits assumed, form in doubt): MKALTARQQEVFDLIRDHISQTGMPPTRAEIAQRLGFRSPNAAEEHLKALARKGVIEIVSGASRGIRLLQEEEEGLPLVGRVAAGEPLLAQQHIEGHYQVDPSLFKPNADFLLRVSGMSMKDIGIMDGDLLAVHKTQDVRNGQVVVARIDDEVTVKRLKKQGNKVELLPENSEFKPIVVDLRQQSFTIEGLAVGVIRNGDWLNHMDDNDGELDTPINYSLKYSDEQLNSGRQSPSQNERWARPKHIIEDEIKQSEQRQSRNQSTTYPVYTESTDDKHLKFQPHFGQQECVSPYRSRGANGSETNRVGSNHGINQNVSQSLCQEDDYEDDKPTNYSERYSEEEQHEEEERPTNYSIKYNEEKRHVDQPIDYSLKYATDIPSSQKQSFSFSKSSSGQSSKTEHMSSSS

[3] = target: human APC amino acids Ser1259-Asp1400 (APC 20 amino acid repeats) fused to Lex-A (vector BTM 116) (human); assay: as above
Chain of human APC amino acids Ser1259-Asp1400 (APC 20 amino acid repeats) fused to Lex-A (vector BTM 116) (human) (P0A7C2 other isoform, or with tags, fused parts or gaps limits assumed, form in doubt): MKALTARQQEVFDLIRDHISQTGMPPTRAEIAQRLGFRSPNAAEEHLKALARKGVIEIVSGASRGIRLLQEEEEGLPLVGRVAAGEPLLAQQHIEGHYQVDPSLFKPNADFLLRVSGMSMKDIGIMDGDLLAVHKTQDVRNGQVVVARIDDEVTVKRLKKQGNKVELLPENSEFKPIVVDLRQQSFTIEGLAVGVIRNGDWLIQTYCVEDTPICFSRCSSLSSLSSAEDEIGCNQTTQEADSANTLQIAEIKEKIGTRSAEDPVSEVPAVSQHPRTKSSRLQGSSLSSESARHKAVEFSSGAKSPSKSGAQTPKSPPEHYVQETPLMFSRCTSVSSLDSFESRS

[4] = target: T3, LEF-1 amino acids 1-99 fused to Lex-A (vector BTM 116) (UniProt P0A7C2 1-202; P27782 1-99); assay: as above
T3 construct: Order of the fusion follows the vector; also called LEF-1/TCF-4
T3 sequence (P0A7C2 other isoform, or with tags, fused parts or gaps limits assumed): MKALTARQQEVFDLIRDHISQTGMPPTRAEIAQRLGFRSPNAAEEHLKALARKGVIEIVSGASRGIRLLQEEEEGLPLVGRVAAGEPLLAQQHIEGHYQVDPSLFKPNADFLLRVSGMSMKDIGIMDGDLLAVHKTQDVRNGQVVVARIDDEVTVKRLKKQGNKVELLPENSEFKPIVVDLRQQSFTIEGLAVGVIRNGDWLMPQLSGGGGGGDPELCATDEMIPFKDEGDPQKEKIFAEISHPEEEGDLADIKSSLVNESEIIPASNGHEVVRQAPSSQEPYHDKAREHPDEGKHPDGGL
Experimental: 4. Preparation and testing of mutants of β-catenin modulating the interaction with LEF-1, APC, conductin or E-cadherin The mutagenesis of β-catenin in the armadillo repeats 3–8 was carried out by means of the "mutagenesis kit" of the company Clontech according to the producer's record and the mutants were checked by sequencing (FIG. 5). In all mutants the original amino acid was substituted by alanine. For analyzing the interactions the cDNA of human β-catenin (armadillo repeat 3 up to the C-terminal end of the protein) coding for the amino acids Leu218–Leu7 µl or its mutants was cloned into the fusion vector for the activation domain of Gal-4 (pGAD424, Clontech). The cDNA for the binding domains of the interaction partners was cloned into the Lex-A fusion vector BTM 116. To this end, the cDNA of LEF-1 for the amino acids 1–99, conductin for the amino acids Ala342–ARG465; of human APC for the amino acids His1012–Glu1215 (APC 15 amino acid repeats) and for the amino acids Ser1259Asp 1400 (APC 20 amino acid repeats) and E-cadherin for the amino acids Gin773–Asp884 (cytoplasmatic domain) were amplified with the respective primers PCR. The interaction of the Lex-A hybrids with β-catenin and its mutants was quantified by means of the β-galactosidase reporter activity in the yeast 2-hybrid system (report: "Matchmaker". Clontech) (Tab. 2 and FIG. 6).

LEF-1 = target: T4, LEF-1 (Mus musculus, UniProt P27782); assay: yeast 2-hybrid: interaction of β-catenin mutants with LEF-1; assay type: binding; conditions: yeast 2-hybrid, alanine mutants
T4 construct: the cDNA of LEF-1 for the amino acids 1–99; expressed in transfected cells; host or cells: yeast (two-hybrid, Matchmaker, Clontech)
T4 sequence (P27782 1-99): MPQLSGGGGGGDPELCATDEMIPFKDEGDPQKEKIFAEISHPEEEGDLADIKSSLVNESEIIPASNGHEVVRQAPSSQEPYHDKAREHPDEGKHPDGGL

[5] = target: T1, APC (20 amino acid repeats); assay: yeast 2-hybrid: interaction of β-catenin mutants with APC 20 amino acid repeats; assay type: binding; conditions: yeast 2-hybrid, alanine mutants
Summary of the method: (§1)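 Alanine-substituted human β-catenin mutants (armadillo repeat 3 to C-terminus, from Leu218) fused to Gal4 activation domain; partner fragments fused to LexA: E-cadherin Gln773–Asp884, APC His1012–Glu1215 or Ser1259–Asp1400, conductin Ala342–Arg465. Interaction quantified by β-galactosidase reporter activity in yeast.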

[6] = target: T2, APC (15 amino acid repeats); assay: yeast 2-hybrid: interaction of β-catenin mutants with APC 15 amino acid repeats; assay type: binding; conditions: yeast 2-hybrid, alanine mutants
Summary of the method: as §1

conductin = target: T5, conductin (Mus musculus, UniProt O88566); assay: yeast 2-hybrid: interaction of β-catenin mutants with conductin; assay type: binding; conditions: yeast 2-hybrid, alanine mutants
T5 construct: conductin for the amino acids Ala342–ARG465; expressed in transfected cells; host or cells: yeast (two-hybrid, Matchmaker, Clontech)
T5 sequence (O88566 343-465 limits assumed): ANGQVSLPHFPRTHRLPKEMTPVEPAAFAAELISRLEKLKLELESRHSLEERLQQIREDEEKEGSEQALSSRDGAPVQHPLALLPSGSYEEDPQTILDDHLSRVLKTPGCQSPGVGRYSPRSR
Summary of the method: as §1

E-cadherin = target: T6, E-cadherin (Mus musculus, UniProt P09803); assay: yeast 2-hybrid: interaction of β-catenin mutants with E-cadherin; assay type: binding; conditions: alanine mutants
T6 construct: E-cadherin for the amino acids Gin773–Asp884 (cytoplasmatic domain); expressed in transfected cells; host or cells: yeast (two-hybrid, Matchmaker, Clontech)
T6 sequence (P09803 773-884): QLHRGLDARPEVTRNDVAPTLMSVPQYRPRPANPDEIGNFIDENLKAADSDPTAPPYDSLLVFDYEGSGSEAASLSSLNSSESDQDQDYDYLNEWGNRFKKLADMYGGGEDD
Experimental: The mutagenesis of β-catenin in the armadillo repeats 3–8 was carried out by means of the “mutagenesis kit” of the company Clontech according to the producer's record and the mutants were checked by sequencing (FIG. 5). In all mutants the original amino acid was substituted by alanine. For analyzing the interactions the cDNA of human β-catenin (armadillo repeat 3 up to the C-terminal end of the protein) coding for the amino acids Leu218–Leu7 μl or its mutants was cloned into the fusion vector for the activation domain of Gal-4 (pGAD424, Clontech). The cDNA for the binding domains of the interaction partners was cloned into the Lex-A fusion vector BTM 116. To this end, the cDNA of LEF-1 for the amino acids 1–99, conductin for the amino acids Ala342–ARG465; of human APC for the amino acids His1012–Glu1215 (APC 15 amino acid repeats) and for the amino acids Ser1259Asp 1400 (APC 20 amino acid repeats) and E-cadherin for the amino acids Gin773–Asp884 (cytoplasmatic domain) were amplified with the respective primers PCR. The interaction of the Lex-A hybrids with β-catenin and its mutants was quantified by means of the β-galactosidase reporter activity in the yeast 2-hybrid system (report: “Matchmaker”. Clontech) (Tab. 2 and FIG. 6).

Row | Molecule | share of the interaction with wild type β-catenin in percent [1] [%] | share of the interaction with wild type β-catenin in percent [2] [%] | share of the interaction with wild type β-catenin in percent [3] [%] | also measured
1 | human β-catenin (Leu218-Leu781) mutant Trp 383 to alanine, Gal-4 activation domain fusion (from UniProt P35222 218-781) |  | 59 | 0 | 
2 | human β-catenin (Leu218-Leu781) mutant Lys 292 to alanine, Gal-4 activation domain fusion (from UniProt P35222 218-781) | 5 |  | 28 | 
3 | human β-catenin (Leu218-Leu781) mutant Phe 253 to alanine, Gal-4 activation domain fusion (from UniProt P35222 218-781) | 17 |  | 40 | 
4 | Arg 457: human β-catenin mutant, Arg 457 substituted by alanine (arm 8) (protein, left off: large carriers; small tags and cut ends) LHNLSHHREGLLAIFKSGGIPALVKMLGSPVDSVLFYAITTLHNLLLHQEGAKMAVRLAGGLQKMVALLNKTNVKFLAITTDCLQILAYGNQESKLIILASGGPQALVNIMRTYTYEKLLWTTSRVLKVLSVCSSNKPAIVEAGGMQALGLHLTDPSQRLVQNCLWTLRNLSDAATKQEGMEGLLGTLVQLLGSDDINVVTCAAGILSNLTCNNYKNKMMVCQVGGIEALVRTVLRAGDAEDITEPAICALRHLTSRHQEAEMAQNAVRLHYGLPVVVKLLHPPSHWPLIKATVGLIRNLALCPANHAPLREQGAIPRLVQLLVRAHQDTQRRTSMGGTQQQFVEGVRMEEIVEGCTGALHILARDVHNRIVIRGLNTIPLFVQLLYSPIENIQRVAAGVLCELAQDKEAAEAIEAEGATAPLTELLHSRNEGVATYAAAVLFRMSEDKPQDYKKRLSVELTSSLFRTEPMAWNETADLGLDIGAQGEPLGYRQDDPSYRSFHSGGYGQDALGMDPMMEHEMGGHHPGADYPVDGLPDLGHAQDLMDGLPPGDSNQLAWFDTDL |  |  |  | Interaction With LEF-1, share of wild type β-catenin interaction (LEF-1): — (Interactions marked by — correspond to 60–100% of the wild type interaction); Interaction With APC-20, share of wild type β-catenin interaction [5]: — (Interactions marked by — correspond to 60–100% of the wild type interaction); Interaction With APC-15, share of wild type β-catenin interaction [6]: — (Interactions marked by — correspond to 60–100% of the wild type interaction); Interaction With Conductin, share of wild type β-catenin interaction (conductin): 36%; Interaction With E-Cadherin, share of wild type β-catenin interaction (E-cadherin): — (Interactions marked by — correspond to 60–100% of the wild type interaction)
5 | Lys 394: human β-catenin mutant, Lys 394 substituted by alanine (arm 7) (protein, left off: large carriers; small tags and cut ends) LHNLSHHREGLLAIFKSGGIPALVKMLGSPVDSVLFYAITTLHNLLLHQEGAKMAVRLAGGLQKMVALLNKTNVKFLAITTDCLQILAYGNQESKLIILASGGPQALVNIMRTYTYEKLLWTTSRVLKVLSVCSSNKPAIVEAGGMQALGLHLTDPSQRLVQNCLWTLRNLSDAATAQEGMEGLLGTLVQLLGSDDINVVTCAAGILSNLTCNNYKNKMMVCQVGGIEALVRTVLRAGDREDITEPAICALRHLTSRHQEAEMAQNAVRLHYGLPVVVKLLHPPSHWPLIKATVGLIRNLALCPANHAPLREQGAIPRLVQLLVRAHQDTQRRTSMGGTQQQFVEGVRMEEIVEGCTGALHILARDVHNRIVIRGLNTIPLFVQLLYSPIENIQRVAAGVLCELAQDKEAAEAIEAEGATAPLTELLHSRNEGVATYAAAVLFRMSEDKPQDYKKRLSVELTSSLFRTEPMAWNETADLGLDIGAQGEPLGYRQDDPSYRSFHSGGYGQDALGMDPMMEHEMGGHHPGADYPVDGLPDLGHAQDLMDGLPPGDSNQLAWFDTDL |  |  |  | Interaction With LEF-1, share of wild type β-catenin interaction (LEF-1): — (Interactions marked by — correspond to 60–100% of the wild type interaction); Interaction With APC-20, share of wild type β-catenin interaction [5]: — (Interactions marked by — correspond to 60–100% of the wild type interaction); Interaction With APC-15, share of wild type β-catenin interaction [6]: — (Interactions marked by — correspond to 60–100% of the wild type interaction); Interaction With Conductin, share of wild type β-catenin interaction (conductin): 42%; Interaction With E-Cadherin, share of wild type β-catenin interaction (E-cadherin): — (Interactions marked by — correspond to 60–100% of the wild type interaction)

The next lines start with results.

Row | share of the interaction with wild type β-catenin in percent [1] [%] | share of the interaction with wild type β-catenin in percent [2] [%] | share of the interaction with wild type β-catenin in percent [3] [%] | Molecule | also measured
6 | 42 | 30 |  | human β-catenin (Leu218-Leu781) mutant Lys 435 to alanine, Gal-4 activation domain fusion (from UniProt P35222 218-781) | 
7 | 20 |  | 55 | human β-catenin (Leu218-Leu781) mutant Trp 338 to alanine, Gal-4 activation domain fusion (from UniProt P35222 218-781) | 
8 | 45 | 12 |  | human β-catenin (Leu218-Leu781) mutant Arg 386 to alanine, Gal-4 activation domain fusion (other, not shown: large carriers; small tags and cut ends) LHNLSHHREGLLAIFKSGGIPALVKMLGSPVDSVLFYAITTLHNLLLHQEGAKMAVRLAGGLQKMVALLNKTNVKFLAITTDCLQILAYGNQESKLIILASGGPQALVNIMRTYTYEKLLWTTSRVLKVLSVCSSNKPAIVEAGGMQALGLHLTDPSQRLVQNCLWTLANLSDAATKQEGMEGLLGTLVQLLGSDDINVVTCAAGILSNLTCNNYKNKMMVCQVGGIEALVRTVLRAGDREDITEPAICALRHLTSRHQEAEMAQNAVRLHYGLPVVVKLLHPPSHWPLIKATVGLIRNLALCPANHAPLREQGAIPRLVQLLVRAHQDTQRRTSMGGTQQQFVEGVRMEEIVEGCTGALHILARDVHNRIVIRGLNTIPLFVQLLYSPIENIQRVAAGVLCELAQDKEAAEAIEAEGATAPLTELLHSRNEGVATYAAAVLFRMSEDKPQDYKKRLSVELTSSLFRTEPMAWNETADLGLDIGAQGEPLGYRQDDPSYRSFHSGGYGQDALGMDPMMEHEMGGHHPGADYPVDGLPDLGHAQDLMDGLPPGDSNQLAWFDTDL | share of the interaction with wild type β-catenin in percent [4]: 35%
